Assays:
[1] = target: M2LTKGS peptide (influenza A virus); experiment: peptide ELISA, avian flu M2 variants
[2] = target: M2DLTGS peptide (influenza A virus); experiment: peptide ELISA, avian flu M2 variants

B1: human anti-M2 monoclonal antibody no. Z3G1 (recombinant IgG1 type Z3, CHO; ATCC PTA-5967) (antibody, V domains shown)
VH: QVQLVQSGAEVKKPGASVKVSCKASGYTFTSYGISWVRQAPGQGLEWMGWISAYNGNTNYAQKLQGRVTMTTDTSTSTAYMELRSLRSDDTAVYYCARAAAGGYFQHWGQGTLVTVSS
VL: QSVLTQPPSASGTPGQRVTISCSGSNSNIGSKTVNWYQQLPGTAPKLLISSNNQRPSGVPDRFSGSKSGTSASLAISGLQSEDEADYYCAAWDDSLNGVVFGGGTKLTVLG
Question: Does B1 bind [1]?
Answer: binds

Question: Does B1 bind [2]?
Answer: binds

From patent US20090196872A1 (KIRIN BEER, published 2009)
